Test results taken from patent US20100189695.

Legend:
NFATc4 = target: T1, NFATc4
T1 sequence (Q14934 1-902, species assumed, looked up): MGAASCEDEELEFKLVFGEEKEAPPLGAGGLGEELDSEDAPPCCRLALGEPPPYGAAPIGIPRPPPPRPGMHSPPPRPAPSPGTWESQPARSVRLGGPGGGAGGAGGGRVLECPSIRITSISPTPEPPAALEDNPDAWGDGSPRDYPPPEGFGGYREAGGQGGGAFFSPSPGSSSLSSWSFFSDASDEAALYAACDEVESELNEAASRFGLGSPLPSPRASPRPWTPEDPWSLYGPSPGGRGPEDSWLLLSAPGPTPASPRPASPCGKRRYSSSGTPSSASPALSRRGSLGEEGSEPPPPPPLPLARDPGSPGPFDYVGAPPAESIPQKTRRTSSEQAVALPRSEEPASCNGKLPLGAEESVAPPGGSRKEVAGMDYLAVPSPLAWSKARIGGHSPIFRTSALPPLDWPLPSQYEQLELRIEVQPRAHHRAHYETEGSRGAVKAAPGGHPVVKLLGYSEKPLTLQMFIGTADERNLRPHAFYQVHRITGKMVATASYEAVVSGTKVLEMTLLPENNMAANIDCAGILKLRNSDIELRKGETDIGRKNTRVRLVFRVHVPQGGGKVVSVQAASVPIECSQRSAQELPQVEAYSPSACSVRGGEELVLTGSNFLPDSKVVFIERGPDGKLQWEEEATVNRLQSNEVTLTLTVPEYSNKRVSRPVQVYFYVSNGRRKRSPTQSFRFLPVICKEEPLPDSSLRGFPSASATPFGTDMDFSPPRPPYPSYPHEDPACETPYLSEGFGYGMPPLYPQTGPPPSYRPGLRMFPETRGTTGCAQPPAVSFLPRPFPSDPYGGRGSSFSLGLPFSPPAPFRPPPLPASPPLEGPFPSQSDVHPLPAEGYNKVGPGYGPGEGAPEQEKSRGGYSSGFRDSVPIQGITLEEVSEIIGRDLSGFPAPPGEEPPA

[1] = target: Rac1 (murine BMDM cells), P63001
[2] = target: Tau protein (in bone marrow derived macrophages), P10637
Chain of Tau protein (in bone marrow derived macrophages), P10637 (P10637 whole entry, looked up): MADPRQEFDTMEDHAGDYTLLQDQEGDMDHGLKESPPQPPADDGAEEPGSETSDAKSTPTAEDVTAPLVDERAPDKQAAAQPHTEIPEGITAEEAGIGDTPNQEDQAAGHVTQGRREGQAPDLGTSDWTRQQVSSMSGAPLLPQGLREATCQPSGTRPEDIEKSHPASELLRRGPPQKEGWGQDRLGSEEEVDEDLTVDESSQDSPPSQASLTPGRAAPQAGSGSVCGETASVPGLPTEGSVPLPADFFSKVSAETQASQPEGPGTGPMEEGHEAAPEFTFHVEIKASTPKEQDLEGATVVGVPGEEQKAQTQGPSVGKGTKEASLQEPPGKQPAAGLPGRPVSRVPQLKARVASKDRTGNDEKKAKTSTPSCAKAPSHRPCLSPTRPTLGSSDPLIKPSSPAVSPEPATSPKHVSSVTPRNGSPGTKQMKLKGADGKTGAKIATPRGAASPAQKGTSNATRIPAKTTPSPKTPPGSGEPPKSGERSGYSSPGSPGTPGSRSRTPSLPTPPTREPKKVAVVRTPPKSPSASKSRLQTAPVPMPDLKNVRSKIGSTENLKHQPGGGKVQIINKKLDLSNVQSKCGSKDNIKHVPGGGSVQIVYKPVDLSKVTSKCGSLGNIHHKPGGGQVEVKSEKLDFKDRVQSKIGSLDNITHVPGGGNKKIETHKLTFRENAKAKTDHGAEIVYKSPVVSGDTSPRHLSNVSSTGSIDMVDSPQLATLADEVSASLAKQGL

B1: murine IRAK-1 (endogenous, wild type BMDM cells) (protein)
chain: MAGGPGPGEPVVPGAQHFLYEVPPWVMCRFYKVMDALEPADWCQFAALIVRDQTELRLCERSEQRTASVLWPWINRNARVADLVHILTHLQLLRARDIITAWHPPAPVVPPSTAAPRPSSISAGSEAGDWSPRKLQSSASTFLSPAFPGSQTHSESELLQVPLPVSLGPPLPSSAPSSTKSSPESPVSGLQRAHPSPFCWPFCEISQGTCNFSEELRIGEGGFGCVYRAVMRNTTYAVKRLKEEADLEWTMVKQSFLTEVEQLSRFRHPNIVDFAGYCAESGLYCLVYGFLPNGSLEDQLHLQTQACSPLSWPQRLDILLGTARAIQFLHQDSPSLIHGDIKSSNVLLDERLMPKLGDFGLARFSRFAGAKASQSSTVARTSTVRGTLAYLPEEYIKTGRLAVDTDTFSFGVVILETLAGQRAVRTQGAKTKYLKDLIEDEAEEAGVTLKSTQPTLWVGVATDAWAAPIAAQIYKKHLDSRPGPCPPQLGLALAQLACCCMHRRAKKRPPMTQVYKRLEGLQAGPPWELEVAGHGSPSPQENSYMSTTGSAQSGDEPWQPLVVTTRAPAQAAQQLQRSPNQPVESDESVPGLSATLHSWHLTPGSHPSPASFREASCTQGGTTRESSVRSSPGFQPTTMEGSPTGSSSLLSSEPPQIIINPARQKMVQKLALYEEGVLDSLQLLSSGFFPGLDLEPEKSQGPEESDEFQS
phosphorylated NFATc4 (p-NFATc4) by Western blot (NFATc4): p-NFATc4 was found in the wild type cells (Panel B, lanes 1-3) whereas significantly less was found in the IRAK-1 deficient cells
Rac1 activity (PBD pull down assay) after LPS treatment for 5 min [1]: relative Rac1 activity is significantly higher in LPS-induced wild type macrophages and not in IRAK-1 deficient macrophages
phosphorylated Tau (PHF-Tau) by Western blot after BLP (Pam3CSK4) treatment [2]: stimulation of wild type cells led to increased Tau phosphorylation. In contrast, Tau phosphorylation is ablated in IRAK-1 deficient cells
